The text below walks through data of patent US20220204611A1 (Amgen, published 2022).

Substitutions are numbered along the chain they refer to.

Assay [1] addresses T1, recombinant soluble human TREM2 protein (human TREM2 ECD-FlagHis) (human, UniProt Q9NZC2 19-174).
T1 sequence: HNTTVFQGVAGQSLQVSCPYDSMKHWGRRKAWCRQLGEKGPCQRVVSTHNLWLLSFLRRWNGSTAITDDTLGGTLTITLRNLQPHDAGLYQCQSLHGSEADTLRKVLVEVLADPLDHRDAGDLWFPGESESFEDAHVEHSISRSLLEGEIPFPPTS
Put plainly: Octet BLI binning; competitor: load Ab 5E3. The method, then:
(§1) Each of sixteen different anti-TREM2 antibodies produced from hybridomas were quantitated and loaded onto one of the anti-human Fc sensors at 5 μg/mL for 2 minutes (“Load Antibody”). The sensor was then blocked with 100 μg/mL of an irrelevant human IgG2 antibody for 5 minutes. […] Next, each of the sixteen different anti-TREM2 antibodies (“Sandwich Antibody”) was added to the sensor at 5 μg/mL and allowed to bind for 5 minutes. All assay buffers contained 10 mM Tris (pH 7.6), 0.1% Triton X-100, 150 mM NaCl, 1 mM CaCl₂, and 1 mg/mL BSA. The assay was conducted at 25° C. Experimental kinetic results were fit to a 1:1 binding model.
(§2) However, if addition of the sandwich antibody produces a binding event, then the sandwich antibody binds to a different epitope on human TREM2 than the load antibody and the two antibodies are categorized into different epitope bins.
Background: Biolayer interferometry detects binding as a change in optical thickness at a sensor tip.

The target in assay [2] is T1, recombinant soluble human TREM2 protein …. Put plainly: Octet BLI binning; competitor: load Ab 24G6. The procedure: as §1, §2
Assay [3] shares this target. Put plainly: Octet BLI binning; competitor: load Ab 16B8. The procedure:
as §1, §2

Assay [4] shares this target. Put plainly: Octet BLI binning; competitor: load Ab 25F12. The method, then: as §1, §2
For assay [5] the target is unchanged. Description: Octet BLI binning; competitor: load Ab 10E3. The procedure: as §1, §2
Assay [6] shares this target. Put plainly: Octet BLI binning; competitor: load Ab 26A10. The procedure: as §1, §2
The target in assay [7] is T2, soluble human TREM2 protein (TREM2 ECD-huIgG1 Fc fusion protein) (human, UniProt Q9NZC2 19-174, biotinylated).
T2 construct: also called biotinylated soluble human TREM2 protein
T2 sequence: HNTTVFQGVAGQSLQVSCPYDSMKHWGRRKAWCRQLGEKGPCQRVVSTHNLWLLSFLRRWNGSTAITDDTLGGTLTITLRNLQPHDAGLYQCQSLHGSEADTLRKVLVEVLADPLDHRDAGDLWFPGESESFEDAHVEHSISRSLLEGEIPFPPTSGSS
Put plainly: ELISA, hybridoma supernatant on captured biotinylated TREM2 ECD-Fc. The procedure: Exhausted hybridoma supernatants were tested for binding to human TREM2 by ELISA. Briefly, neutravidin plates were generated by incubating a 384 well Corning Assay Plate 3702 with neutravidin (Thermo 3100B) at 10 μg/mL (40 μL/well) in 1× PBS at 4° C. overnight. The plates were washed with 1× PBS using a Biotek plate washer and then blocked with 1% milk/1× PBS (90 μL/well) at room temperature (RT) for 30 minutes. The plates were then washed again with 1× PBS using the plate washer. […] The plates were then incubated at RT for 1 hour to immobilize the TREM2 protein to the wells of the plates. Following the incubation, the plates were again washed with 1× PBS using the plate washer. 10 μL of each hybridoma supernatant to be tested and 40 μL of 1% milk/1× PBS (1:5 dilution) were added to each well of the plates and incubated at RT for 1 hour. Again, the plates were washed with 1× PBS using the plate washer. […] After the plates were washed with 1× PBS using the plate washer, 40 μL/well of TMB substrate (Neogen, lot #150114) was added to the plates and the plates were incubated at RT for 30 minutes. The reaction was quenched with 1N hydrochloric acid (40 uL/well) following the incubation period. OD readings at 450 nm were obtained with a plate reader.
In general terms: In an ELISA, binding on a coated surface is turned into a signal by an enzyme label.

Assay [8] concerns the target T1, recombinant soluble human TREM2 protein …. Description: Octet BLI binning; competitor: load Ab 24A10. The method, then: as §1, §2
The target is the same in assay [9]. Description: Octet BLI binning; competitor: load Ab 13E7. The procedure:
as §1, §2

In assay [10] the target is T3, human TREM2 on cells (human, UniProt Q9NZC2 19-230).
T3 sequence: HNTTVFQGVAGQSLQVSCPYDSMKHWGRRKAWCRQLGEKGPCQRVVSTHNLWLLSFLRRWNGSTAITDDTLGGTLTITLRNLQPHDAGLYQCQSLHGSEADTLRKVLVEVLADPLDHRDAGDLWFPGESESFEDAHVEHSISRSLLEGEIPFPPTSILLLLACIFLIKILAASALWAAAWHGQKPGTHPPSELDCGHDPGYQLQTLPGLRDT
Put plainly: cell-based or functional assay.

The target in assay [11] is T1, recombinant soluble human TREM2 protein …. Put plainly: Octet BLI binning; competitor: load Ab 32E3. The procedure: as §1, §2
For assay [12] the target is unchanged. Put plainly: Octet BLI binning; competitor: load Ab 26C10. The method, then:
as §1, §2

For assay [13] the target is unchanged. Put plainly: Octet BLI binning; competitor: load Ab 6E7. The method, then: as §1, §2
The target in assay [14] is T3, human TREM2 on cells. Description: cell-based or functional assay. This is another data set of the same source.
Assay [15] has as its target T1, recombinant soluble human TREM2 protein …. Description: Octet BLI binning; competitor: load Ab 26F2. The procedure:
as §1, §2

Assay [16] shares this target. Put plainly: Octet BLI binning; competitor: load Ab 24F4. The method, then: as §1, §2
Assay [17] shares this target. Description: Octet BLI binning; competitor: load Ab 33B12. The method, then:
as §1, §2

B1: 33B12 (antibody, V domains shown)
VH: EVQLVESGGALVQPGGSLRLSCAASGFTFSSFGMSWVRQAPGKGLEWVSYISKSSFTIYYADSVKGRFTISRDNAKNSFYLQMNSLRDEDTAVYYCAREGGLTMVRGVSSYGLDVWGQGTTVTVSS
VL: not shown
notes: human IgG2 from hybridoma
Turning to B1, the sandwich binding signal in assay [1] was -0.015; in assay [2], 0.388; in [3], -0.017; in assay [4] it was 0.345; in [5], 0.271; in [6], 0.023. In addition, the sandwich binding signal in [8] is 0.47; in assay [9], 0.287; in [11], 0.384; in assay [12], -0.009; in assay [13], 0.52; in assay [15], 0.002. In [16], the sandwich binding signal worked out at 0.454. For the same molecule, the “OD 450” value in [7] is 1.34 OD450. In addition, the “Emax (% maximum activation compared to RnD antibody)” value with human TREM2 on cells [10] was found to be 246%. The “pSyk EC50, differentiated THP-1 cells” value in the assay with human TREM2 on cells [10] was 2.85 nM. For the same molecule, the “pSyk EC50” value with human TREM2 on cells [14] was found to be 1 nM.

B2: 26C10 (antibody, human IgG2, V domains shown)
VH: B1 VH with K53S, Y95F, A97V, L102I, L113M
VL: SFELTQPPSVSVSPGQTASITCSGDKLGDKYVCWYQQKPGQSPMLVIYQDTKRPSGIPERFSGSNSGNTATLTISGTQAMDEADYYCQAWDSSTVVFGGGTKLTVL
notes: human IgG2 from hybridoma
As for B2, the sandwich binding signal in assay [1] was -0.042; in assay [2] it was 0.384; in assay [3], -0.031; in assay [4] it was 0.418; in assay [5], 0.285; in assay [17] it was -0.033. In addition, the sandwich binding signal is 0.541 in assay [8]; 0.323 in [9]; 0.419 in [11]; -0.032 in assay [12]; 0.594 in [13]; -0.015 in assay [15]. Besides, the sandwich binding signal in assay [16] is 0.552. In assay [7], the “OD 450” value stood at 1.59 OD450. The “pSyk EC50” value in the assay with human TREM2 on cells [14] is 2.2 nM.

B3: 24F4 (antibody, human IgG2, V domains shown)
VH: EVQLVQSGAEVKKPGESLKISCKGSGYTFTSYWIGWVRQMPGKGLEWMGIIYPGDSDTRYSPSFQGQVTISVDKSSSTAYLQWSSLKASDTAIYYCTRQAIAVTGLGGFDPWGQGTLVTVSS
VL: EIVLTQSPGTLSLSPGERATLSCRASQSVSSSYLAWYQQKPGQAPRLLIYGASSRATGIPDRFSGSGSGTDFTLTISRLEPEDFALYYCQQYDTSPFTFGPGTKVDIK
notes: human IgG2 from hybridoma
For the molecule B3, the sandwich binding signal in assay [1] was 0.311; in assay [2], 0.251; in assay [3] it was 0.27; in assay [4], 0.244; in assay [5], -0.032; in [6], 0.319. In addition, the sandwich binding signal in assay [17] is 0.25; in [8], 0.335; in [9] it was -0.015; in assay [11], -0.001; in assay [12] it was 0.346; in assay [13] it was -0.039. The sandwich binding signal in [15] amounted to 0.282; in assay [16], 0.038. In the assay with human TREM2 on cells [14], the “pSyk EC50” value came out at 2.4 nM.
